Patent US20120121608A1 (CALIFORNIA INSTITUTE OF TECHNOLOGY, published 2012)

T1: RIP, endogenous, in mouse embryonic fibroblasts (mouse, UniProt Q60855 1-656)
T1 sequence (looked up): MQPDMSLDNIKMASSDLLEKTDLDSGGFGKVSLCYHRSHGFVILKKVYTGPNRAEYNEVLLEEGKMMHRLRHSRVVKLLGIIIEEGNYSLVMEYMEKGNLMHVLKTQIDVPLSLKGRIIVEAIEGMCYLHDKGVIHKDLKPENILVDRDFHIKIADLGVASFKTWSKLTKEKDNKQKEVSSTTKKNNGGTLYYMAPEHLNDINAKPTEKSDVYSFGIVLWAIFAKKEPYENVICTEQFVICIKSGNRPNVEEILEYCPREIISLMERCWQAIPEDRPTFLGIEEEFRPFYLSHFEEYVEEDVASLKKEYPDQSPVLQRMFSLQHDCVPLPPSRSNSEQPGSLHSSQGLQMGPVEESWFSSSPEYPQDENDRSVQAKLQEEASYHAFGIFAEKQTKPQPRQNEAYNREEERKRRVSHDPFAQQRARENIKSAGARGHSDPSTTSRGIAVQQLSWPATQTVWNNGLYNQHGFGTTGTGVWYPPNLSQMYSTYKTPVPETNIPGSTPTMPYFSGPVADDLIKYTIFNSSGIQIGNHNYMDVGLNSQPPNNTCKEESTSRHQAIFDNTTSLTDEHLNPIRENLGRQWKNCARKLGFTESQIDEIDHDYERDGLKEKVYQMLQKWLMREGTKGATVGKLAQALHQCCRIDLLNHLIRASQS

B1: Sam68, endogenous, in mouse embryonic fibroblasts (MEF) (other, UniProt Q60749 1-443, looked up)
chain: MQRRDDPASRLTRSSGRSCSKDPSGAHPSVRLTPSRPSPLPHRPRGGGGGPRGGARASPATQPPPLLPPSTPGPDATVVGSAPTPLLPPSATAAVKMEPENKYLPELMAEKDSLDPSFTHAMQLLSVEIEKIQKGESKKDDEENYLDLFSHKNMKLKERVLIPVKQYPKFNFVGKILGPQGNTIKRLQEETGAKISVLGKGSMRDKAKEEELRKGGDPKYAHLNMDLHVFIEVFGPPCEAYALMAHAMEEVKKFLVPDMMDDICQEQFLELSYLNGVPEPSRGRGVSVRGRGAAPPPPPVPRGRGVGPPRGALVRGTPVRGSITRGATVTRGVPPPPTVRGAPTPRARTAGIQRIPLPPTPAPETYEDYGYDDTYAEQSYEGYEGYYSQSQGESEYYDYGHGELQDSYEAYGQDDWNGTRPSLKAPPARPVKGAYREHPYGRY
notes: also called KHDRBS1
B2: TNF receptor, endogenous, in mouse embryonic fibroblasts (MEF) (receptor, UniProt P25118 30-454, looked up)
chain: LVPSLGDREKRDSLCPQGKYVHSKNNSICCTKCHKGTYLVSDCPSPGRDTVCRECEKGTFTASQNYLRQCLSCKTCRKEMSQVEISPCQADKDTVCGCKENQFQRYLSETHFQCVDCSPCFNGTVTIPCKETQNTVCNCHAGFFLRESECVPCSHCKKNEECMKLCLPPPLANVTNPQDSGTAVLLPLVILLGLCLLSFIFISLMCRYPRWRPEVYSIICRDPVPVKEEKAGKPLTPAPSPAFSPTSGFNPTLGFSTPGFSSPVSSTPISPIFGPSNWHFMPPVSEVVPTQGADPLLYESLCSVPAPTSVQKWEDSAHPQRPDNADLAILYAVVDGVPPARWKEFMRFMGLSEHEIERLEMQNGRCLREAQYSMLEAWRRRTPRHEDTLEVVGLVLSKMNLAGCLENILEALRNPAPSSTTRLPR
notes: also called TNF receptor complex
B3: TNF receptor, endogenous, in HeLa cells (receptor, human, UniProt P19438 30-455, looked up)
chain: LVPHLGDREKRDSVCPQGKYIHPQNNSICCTKCHKGTYLYNDCPGPGQDTDCRECESGSFTASENHLRHCLSCSKCRKEMGQVEISSCTVDRDTVCGCRKNQYRHYWSENLFQCFNCSLCLNGTVHLSCQEKQNTVCTCHAGFFLRENECVSCSNCKKSLECTKLCLPQIENVKGTEDSGTTVLLPLVIFFGLCLLSLLFIGLMYRYQRWKSKLYSIVCGKSTPEKEGELEGTTTKPLAPNPSFSPTPGFTPTLGFSPVPSSTFTSSSTYTPGDCPNFAAPRREVAPPYQGADPILATALASDPIPNPLQKWEDSAHKPQSLDTDDPATLYAVVENVPPLRWKEFVRRLGLSDHEIDRLELQNGRCLREAQYSMLATWRRRTPRREATLELLGRVLRDMDLLGCLEDIEEALCGPAALPPAPSLLR

Experiments:
[1] = target: T1, RIP, endogenous, in mouse embryonic …; experiment: immunoprecipitation of Sam68 from TNF-treated MEF cells, probed for RIP (FIG. 15E)
[2] = target: B1; experiment: immunoprecipitation of endogenous Sam68 from MEF cells, immunoblot for TNFR (FIG. 10)
Method: (§1) 20-25×10⁶ control and treated cells were lysed in a rotator at 4° C. for 30 minutes in the lysis buffer (1.0% Triton-X100, 20 mM HEPES (pH 7.6), 150 mM NaCl, 1 mM EDTA, 10% glycerol and complete protease inhibitor cocktail). The immunoprecipitates were washed thrice with the lysis buffer and boiled with LDS sample buffer (Invitrogen). Samples with the endogenous protein complexes were resolved in Novex 4-12% Bis-Tris gels (Invitrogen) and transferred to nitrocellulose membrane, probed using relevant antibodies and detected using the SuperSignal West Pico or West Femto Chemiluminescent Substrate System (Pierce). Detection of proteins in the immunoprecipitates with molecular weight close to the denatured heavy and light chains of immunoglobulins (50 kDa and 25 kDa respectively) was performed using native IgG detection reagent (Pierce). […] Additionally, membrane fractionation was performed on cells treated with TNF.

[3] = target: T2, Sam68, endogenous, in human cells (HeLa, 293T) (human, UniProt Q07666 1-443); experiment: immunoprecipitation of TNFR with anti-TNFR antibody from HeLa cells, immunoblot (FIG. 9E)
T2 construct: also called endogenous Sam68
Method: as §1

Binder: B1
- binding result [1]: binds

Binder: B2
- binding result [2]: binds

Binder: B3
- binding result [3]: binds
